The Immune Epitope Database (IEDB)
Blank lines part the entries; values can stand above or below the sequence they belong to.

Key:
HLA-A*30:01 = assay: IEDB peptide-MHC binding, purified MHC/competitive/radioactivity; filed as Kd, often an IC50 or EC50 that approximates it; ≥ and ≤ were set here for values at or beyond the usual limits of such assays; conditions: source organism: Dengue virus 2 Jamaica/1409/1983
HLA-A*01:01 = assay: as above
HLA-B*44:02 = assay: as above
HLA-B*44:03 = assay: as above
HLA-A*23:01 = assay: as above
HLA-A*24:02 = assay: as above
HLA-B*08:01 = assay: as above
HLA-A*30:02 = assay: as above
HLA-A*29:02 = assay: as above
HLA-A*26:01 [1] = assay: as above
HLA-A*32:01 = assay: as above
HLA-A*03:01 = assay: IEDB peptide-MHC binding, purified MHC/direct/fluorescence; filed as Kd, often an IC50 or EC50 that approximates it; ≥ and ≤ were set here for values at or beyond the usual limits of such assays; conditions: source organism: Homo sapiens
HLA-A*11:01 [2] = assay: as above; conditions: source organism: Homo sapiens
HLA-A*31:01 = assay: as above; conditions: source organism: Homo sapiens
HLA-A*02:01 = assay: as above; conditions: source organism: Homo sapiens
HLA-A*11:01 [3] = assay: IEDB peptide-MHC binding, purified MHC/competitive/radioactivity; filed as Kd, often an IC50 or EC50 that approximates it; ≥ and ≤ were set here for values at or beyond the usual limits of such assays; conditions: source organism: Dengue virus 4 Philippines/H241/1956
HLA-A*26:01 [4] = assay: IEDB peptide-MHC binding, purified MHC/competitive/fluorescence; filed as Kd, often an IC50 or EC50 that approximates it; ≥ and ≤ were set here for values at or beyond the usual limits of such assays; conditions: source organism: Azotobacter vinelandii DJ
[5] = source organism: Dengue virus 2 Jamaica/1409/1983
[6] = source organism: Dengue virus 4 Philippines/H241/1956
[7] = source organism: Dengue virus 3 Martinique/1243/1999
[8] = source organism: Vaccinia virus WR
[9] = source organism: SARS coronavirus Tor2
[10] = source organism: Dengue virus 1 Brazil/97-11/1997
[11] = source organism: Mammarenavirus brazilense
[12] = source organism: Lymphocytic choriomeningitis virus (strain Armstrong)
[13] = source organism: Mammarenavirus lassaense
[14] = source organism: Mammarenavirus guanaritoense
[15] = source organism: Dengue virus 1 Singapore/S275/1990

Sequence: ITEMGRLPTF
Kd (HLA-A*30:01): 9680 nM | Kd (HLA-A*01:01; [5]): 17500 nM

Sequence: REDLWCGSLI
Kd (HLA-B*44:02; [6]): 256 nM | Kd (HLA-B*44:03; [6]): 401 nM

Sequence: VEGVSGGAW
Kd (HLA-B*44:02; [6]): 151 nM | Kd (HLA-B*44:03; [6]): 114 nM

Sequence: YYMATLKNV
Kd (HLA-A*23:01; [6]): 319 nM | Kd (HLA-A*24:02; [6]): 74.2 nM

Sequence: EKWKKKLNQL
Kd (HLA-B*08:01; [7]): 596 nM

Sequence: SDMQKFTIL
Kd (HLA-B*08:01; [8]): 40.9 nM

Sequence: GSVGFNIDY
Kd (HLA-A*01:01; [9]): 5640 nM | Kd (HLA-A*30:02; [9]): 1660 nM | Kd (HLA-A*23:01; [9]): ≥ 77800 nM | Kd (HLA-A*29:02; [9]): 177 nM | Kd (HLA-A*26:01 [1]; [9]): 10200 nM | Kd (HLA-A*24:02; [9]): ≥ 77600 nM

Sequence: NEELITEQM
Kd (HLA-B*44:02; [6]): 281 nM

Sequence: KTKNNDWDY
Kd (HLA-A*01:01; [10]): 595 nM | Kd (HLA-A*30:02; [10]): 15 nM

Sequence: SYLRKFSAL
Kd (HLA-B*08:01; [8]): 5.98 nM

Sequence: TPMLRHTIE
Kd (HLA-B*08:01; [7]): 3.36 nM

Sequence: CIAIGIITLY
Kd (HLA-A*01:01; [7]): 7450 nM | Kd (HLA-A*30:02; [7]): ≥ 69700 nM | Kd (HLA-A*26:01 [1]; [7]): 121 nM

Sequence: YWVSCGTGNI
Kd (HLA-A*23:01; [10]): 165 nM

Sequence: LTIGVNYDI
Kd (HLA-A*32:01; source organism: Vaccinia virus Copenhagen): 525 nM

Sequence: AEMEEALKG
Kd (HLA-B*44:02; [7]): 29.7 nM | Kd (HLA-B*44:03; [7]): 5.34 nM

Sequence: ETNYYIHPI
Kd (HLA-A*32:01; [8]): 368 nM

Sequence: DTITYKCPLL
Kd (HLA-A*30:01): 1140 nM | Kd (HLA-A*26:01 [1]; [5]): 2100 nM

Kd (HLA-A*03:01): 257 nM | Kd (HLA-A*11:01 [2]): 1440 nM | Kd (HLA-A*31:01): 1960 nM | Kd (HLA-A*02:01): 15800 nM
Sequence: YLGSWATGK

Sequence: NYTQHTSSM
Kd (HLA-A*01:01; [9]): ≥ 57000 nM | Kd (HLA-A*30:02; [9]): ≥ 81100 nM | Kd (HLA-A*23:01; [9]): ≥ 81700 nM | Kd (HLA-A*29:02; [9]): ≥ 45200 nM | Kd (HLA-A*26:01 [1]; [9]): 16300 nM | Kd (HLA-A*24:02; [9]): ≥ 91800 nM

Sequence: RKDIQQWEPS
Kd (HLA-A*32:01; [5]): 3870 nM

Sequence: VDICFWSTL
Kd (HLA-A*01:01; [11]): 12000 nM | Kd (HLA-A*30:02; [11]): 9760 nM | Kd (HLA-A*23:01; [11]): 7570 nM | Kd (HLA-A*29:02; [11]): ≥ 78900 nM | Kd (HLA-A*26:01 [1]; [11]): ≥ 77900 nM | Kd (HLA-A*24:02; [11]): 5630 nM

Sequence: VTDKEKPVNI
Kd (HLA-A*01:01; [10]): 15500 nM

Sequence: CYSQVNPLTL
Kd (HLA-A*23:01; [10]): 189 nM | Kd (HLA-A*24:02; [10]): 144 nM

Sequence: WHLGKLEMDF
Kd (HLA-A*23:01; [5]): 1880 nM

Sequence: WCSQTSYQYL
Kd (HLA-A*01:01; [12]): 1040 nM | Kd (HLA-A*30:02; [12]): ≥ 29600 nM | Kd (HLA-A*23:01; [12]): 8290 nM | Kd (HLA-A*29:02; [12]): 19000 nM | Kd (HLA-A*26:01 [1]; [12]): ≥ 69700 nM | Kd (HLA-A*24:02; [12]): 15900 nM

Sequence: AEPDDVDCW
Kd (HLA-B*44:02; [10]): 37.4 nM | Kd (HLA-B*44:03; [10]): 236 nM

Sequence: SALTLHWFRK
Kd (HLA-A*11:01 [3]): 18.4 nM | Kd (HLA-A*32:01; [6]): 1940 nM

Sequence: LNYVIHKLF
Kd (HLA-A*23:01; [11]): 973 nM | Kd (HLA-A*29:02; [11]): 12800 nM | Kd (HLA-A*24:02; [11]): 10500 nM

Sequence: HYLCLNCLS
Kd (HLA-A*01:01; [13]): 3730 nM | Kd (HLA-A*30:02; [13]): 14200 nM | Kd (HLA-A*26:01 [1]; [13]): ≥ 77900 nM

Sequence: EALKGLPIRY
Kd (HLA-A*26:01 [1]; [7]): 10100 nM

Sequence: NARLKPLDI
Kd (HLA-B*08:01; [8]): 0.813 nM

Sequence: HAQRVESWIL
Kd (HLA-B*08:01; [6]): 355 nM

Sequence: KFLTNKLLL
Kd (HLA-A*01:01; [9]): ≥ 78100 nM | Kd (HLA-A*30:02; [9]): ≥ 27300 nM | Kd (HLA-A*23:01; [9]): 379 nM | Kd (HLA-A*29:02; [9]): ≥ 24200 nM | Kd (HLA-A*26:01 [1]; [9]): ≥ 61000 nM | Kd (HLA-A*24:02; [9]): 1090 nM

Kd (HLA-A*26:01 [4]): ≥ 20000 nM
Sequence: DGLSSVGGY

Sequence: RFFLPIFSEF
Kd (HLA-A*23:01; [14]): 0.232 nM | Kd (HLA-A*29:02; [14]): 1.03 nM | Kd (HLA-A*24:02; [14]): 10.2 nM

Sequence: VFFGYFASHF
Kd (HLA-A*01:01; [9]): 12900 nM | Kd (HLA-A*30:02; [9]): 2820 nM | Kd (HLA-A*23:01; [9]): 0.595 nM | Kd (HLA-A*29:02; [9]): 0.261 nM | Kd (HLA-A*26:01 [1]; [9]): 4130 nM | Kd (HLA-A*24:02; [9]): 4.63 nM

Sequence: SEMAEALKG
Kd (HLA-B*44:02; [10]): 14.5 nM

Sequence: LRKLTSRENL
Kd (HLA-B*08:01; [7]): 4950 nM

Sequence: VIWILIVAI
Kd (HLA-A*32:01; [8]): 198 nM

Sequence: RLANNKVTI
Kd (HLA-A*32:01; [8]): 1.54 nM

Sequence: LWATLLSLTF
Kd (HLA-A*23:01; [15]): 25.3 nM | Kd (HLA-A*24:02; [15]): 193 nM

Sequence: AWRTIMAVLF
Kd (HLA-A*23:01; [6]): 51.5 nM | Kd (HLA-A*24:02; [6]): 22.1 nM
